Measurements taken from article PMC8635412.

What was measured:
[1] = target: Biotinylated UBE3A HECT domain, wild type (METRIS) (human); experiment: METRIS (mechanically transduced immunosorbent assay, rolling magnetic probes); biotinylated ubiquitin on streptavidin-coated ferromagnetic beads rolling on avidin-coated slides coated with biotinylated UBE3A HECT domain; rotating magnetic field 1 Hz for 5 s; read-out rolling parameter (dimensionless)
[2] = target: Biotinylated UBE3A HECT domain Q588E (METRIS) (human); experiment: as above

rolling parameter (ζ) [1] | rolling parameter (ζ) [2] | Substance
0.178 |  | Biotinylated Cys-ubiquitin (ubiquitin variant with an N-terminal cysteine) on streptavidin-coated ferromagnetic particles (from UniProt P0CG48 1-76)
 | 0.247 | Biotinylated Cys-ubiquitin (ubiquitin variant with an N-terminal cysteine) on streptavidin-coated ferromagnetic particles (from UniProt P0CG48 1-76) (natural protein)
